# According to paper PMC9734910:
# Target: Bat37ACE2(18–740) (Pipistrellus pipistrellus (Bat37))
# Assay: […]; 20 mM HEPES, 100 mM NaCl, pH 7.5
substance,measurement,value
Bat37ACE2(18–740) (domain or fragment),stoichiometry N,2
